Reference: US20040005648A1, “PYK2 related products and methods” (Sugen, Inc., priority 1994, published 2004)

Target: Kv1.2-HA (delayed rectifier-type potassium channel Kv1.2 with HA tag) (UniProt P63142)
Assay: cell-based or functional assay

inhibition of outward current in Xenopus oocytes, 8 min after the addition of 100 nM PMA: 95%
Substance: PYK2 (wild type, full length)
